# B1: Transducer of Cdc42-dependent actin assembly protein 2 homolog (Caenorhabditis elegans), Q9XUS7 (parent)
# chain: MIPVSRFFTVQDPSNALLSYTQKGIDFFEKLGQFSKEKAAIEEEYSTKLRSLAKKYAKKSEEDDEILKSVSYTSSFNSFLQQLDQIATRHQTSAEHIRGGVVSYVASKTCQMRSSRKNAINDLKTINDKLEDQINEMCKSGKCYLKSFKDAENSYQKFYKADKNLEISRLELEKARALANARNEACELAKQDYSALVRKTNAEQKRYHVELLPVIFARLKAVDKECIADMRQVLQKIVSFDDSLADSTEECRKIMQREVGKIDAEGDAQLVLKSVEATIEQPAPFEIEDLGDPKNCDSRTNDSADGSGGKLLKSSPSKNRIIRNFLGILKEKEADEKPEASNNDQLMYTDKSKPAHVRLSCLRSKIRDMEKQLEQAIQGREGITRLQQAYYTNPQHGNPSACTEPLISYAKKIEKLKMDIHNLKEFYAMLEMSVEEGQERSFGGRDTPDTTRSMSGSSTNQSSSKTIEDVLSGEAGNSSSADDSSKNILRQLFTTPKRLISSPKTSKSSTPTPLRRRAEISSPKILRSSFSGAIRKSLSTPDSVKVETAVTVTALFEFAKSSAETMSIEQGEILLVLEHDHGDGWTRTKNCRKHNEESGFVPTSYLQFPQ
# Variants of: B1
# Details: with cdc42_caeel cdc-42, Q05062
# Sequence of cdc42_caeel cdc-42, Q05062 (Q05062 whole entry): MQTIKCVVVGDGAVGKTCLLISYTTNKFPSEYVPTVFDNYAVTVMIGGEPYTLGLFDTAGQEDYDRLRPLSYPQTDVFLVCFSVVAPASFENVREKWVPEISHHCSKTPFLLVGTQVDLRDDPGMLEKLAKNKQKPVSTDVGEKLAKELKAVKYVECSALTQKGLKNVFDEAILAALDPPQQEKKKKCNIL
row,Variant,effect of a mutation on the interaction
1,I413S,disrupting interaction strength

# Source: IntAct's records for PubMed 25775511
